Measurements reported in patent US20110165265A1 (FUNDACI GEN MICA CRG, published 2011).
Positions count from the first letter of the chain named. Names and notes keep the numbering of the source.

B1: DcR1-Ig receptor chimera (R&D Systems) (Fc fusion, UniProt O14798 26-221, looked up, not shown: a dimerising Fc or GST)
chain: ATTARQEEVPQQTVAPQQQRHSFKGEECPAGSHRSEHTGACNPCTEGVDYTNASNNEPSCFPCTVCKSDQKHKSSCTMTRDTVCQCKEGTFRNENSPEMCRKCSRCPSGEVQVSNCTSWDDIQCVEEFGANATVETPAAEETMNTSPGTPAPAAEETMNTSPGTPAPAAEETMTTSPGTPAPAAEETMTTSPGTPA
B2: DcR2-Ig receptor chimera (R&D Systems) (Fc fusion, UniProt Q9UBN6 56-211, looked up, not shown: a dimerising Fc or GST)
chain: ATIPRQDEVPQQTVAPQQQRRSLKEEECPAGSHRSEYTGACNPCTEGVDYTIASNNLPSCLLCTVCKSGQTNKSSCTTTRDTVCQCEKGSFQDKNSPEMCRTCRTGCPRGMVKVSNCTPRSDIKCKNESAASSTGKTPAAEETVTTILGMLASPYH
B3: TRAIL variant D269H (114-281) (ligand)
chain: MVRERGPQRVAAHITGTRGRSNTLSSPNSKNEKALGRKINSWESSRSGHSFLSNLHLRNGELVIHEKGFYYIYSQTYFRFQEEIKENTKNDKQMVQYIYKYTSYPDPILLMKSARNSCWSKDAEYGLYSIYQGGIFELKENDRIFVSVTNEHLIDMHHEASFFGAFLVG
notes: All mutants are said to be of the length 114-281; also called rhTRAIL carrying mutation D269H; DR5-selective variant
B4: TRAIL variant D269HE195R (114-281) (ligand)
chain: B3 chain with E83R
notes: All mutants are said to be of the length 114-281; also called TRAIL-DR5; DE

Legend:
[1] = target: B3; assay: cell-based or functional assay
[2] = target: wild-type TRAIL (recombinant human soluble TRAIL, amino acids 114-281) (human, UniProt P50591 114-281); assay: cell-based or functional assay
Sequence of wild-type TRAIL (recombinant human soluble TRAIL, amino acids 114-281) (P50591 114-281 limits assumed): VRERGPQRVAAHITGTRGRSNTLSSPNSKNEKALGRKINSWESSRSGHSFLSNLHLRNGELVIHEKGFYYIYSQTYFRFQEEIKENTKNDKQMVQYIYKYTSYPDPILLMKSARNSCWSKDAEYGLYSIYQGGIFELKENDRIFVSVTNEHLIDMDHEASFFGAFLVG

[3] = target: B4; assay: cell-based or functional assay
[4] = target: B2; assay: SPR (Biacore), DcR2-Ig captured on a protein A-modified CM5 chip, response in RU against ligand concentration (pre-steady state)
[5] = target: B1; assay: SPR (Biacore 3000, 37 °C), DcR1-Ig captured on protein A, pre-steady state
DR5-Ig = target: T1, DR5-Ig (UniProt O14763 54-182); assay: not stated there (SPR by the context of paragraph 339)
T1 construct: also called sDR5; soluble recombinant DR5-Ig; not shown: Ig (Fc) part

[6] = target: death receptor 5 (DR5) on the cell surface (human, UniProt O14763 56-440); assay: cell-based or functional assay

## B1
[1]
  block of ligand-induced apoptosis of Colo205 cells (Annexin V) after pre-incubation of the ligand with soluble receptor: > 2 µg/mL
[2]
  block of ligand-induced apoptosis of Colo205 cells (Annexin V) after pre-incubation of the ligand with soluble receptor: 0.5 µg/mL
[3]
  block of ligand-induced apoptosis of Colo205 cells (Annexin V) after pre-incubation of the ligand with soluble receptor: > 2 µg/mL

## B2
[1]
  block of ligand-induced apoptosis of Colo205 cells (Annexin V) after pre-incubation of the ligand with soluble receptor: 2 fold

## B3
[4]
  binding result: binds
[5]
  fold reduction of binding compared to wtTRAIL: ~20 fold

## B4
[4]
  binding result: binds
[5]
  fold reduction of binding compared to wtTRAIL: ~20 fold
DR5-Ig
  fold increase in kon compared to wtTRAIL: < 5 fold
[6]
  rate of receptor activation relative to wtTRAIL: 17 fold
